We go through two substances from paper PMC2958839, “Multiple FadD Acyl-CoA Synthetases Contribute to Differential Fatty Acid Degradation and Virulence in Pseudomonas aeruginosa” (PLoS ONE, 2010).

Among the test systems are CCCCCCCCCCCCCC(=O)O; CCCCCCCCCCCC(=O)O; CCCCCC(=O)O; CCCCCCCC(=O)O; CCCC(=O)O; CCCCCCCCCC(=O)O; CCCCCCCCCCCCCCCC(=O)O.
Experiment in all cases: purified protein
Conditions in all cases: 5 mM ATP, 0.5 mM CoASH, 30-300 µM FA, 10 mM MgCl2, 0.1% Triton X-100, pH 7.2, 37°C, printed unit mM conflicts with printed kcat/Km and FA range (implies µM)

Regarding FadD1 (Pseudomonas aeruginosa PAO1), the kcat with CCCCCCCCCCCCCC(=O)O turned out to be 0.134 s⁻¹; in the data set on CCCCCCCCCCCC(=O)O, 0.134 s⁻¹; in the data set on CCCCCC(=O)O, 0.137 s⁻¹; in the data set on CCCCCCCC(=O)O it was 0.128 s⁻¹; with CCCC(=O)O, 0.141 s⁻¹; with CCCCCCCCCC(=O)O it was 0.119 s⁻¹. Moreover, in the data set with CCCCCCCCCCCCCCCC(=O)O, the kcat worked out at 0.158 s⁻¹.
Consider FadD2 (Pseudomonas aeruginosa PAO1), for which the kcat with CCCCCCCCCCCCCC(=O)O stood at 0.112 s⁻¹; in the data set on CCCCCCCCCCCC(=O)O it was 0.141 s⁻¹; in the data set on CCCCCC(=O)O, 0.164 s⁻¹; in the data set on CCCCCCCC(=O)O it was 0.210 s⁻¹; in the data set on CCCCCCCCCCCCCCCC(=O)O, 0.102 s⁻¹.

Usually kcat stands for the maximal rate divided by the concentration of active sites.
